Experimental findings from patent US20130224224A1 (Boehringer Ingelheim, published 2013) are described below.

Broadly, the EC50 is the concentration that produces a half-maximal response. Read a high EC50 as weaker potency. By IC50 is commonly meant the concentration that inhibits the measured activity by half. A high value points to weaker potency in that assay.

Experiment [1] deals with T1, cynomolgus CX3CR1 (cynomolgus, UniProt P49238 1-355 (human entry)).
T1 construct: transiently expressed on HEK293T cells; also called cyCX3CR1; cyno CX3CR1
T1 chain: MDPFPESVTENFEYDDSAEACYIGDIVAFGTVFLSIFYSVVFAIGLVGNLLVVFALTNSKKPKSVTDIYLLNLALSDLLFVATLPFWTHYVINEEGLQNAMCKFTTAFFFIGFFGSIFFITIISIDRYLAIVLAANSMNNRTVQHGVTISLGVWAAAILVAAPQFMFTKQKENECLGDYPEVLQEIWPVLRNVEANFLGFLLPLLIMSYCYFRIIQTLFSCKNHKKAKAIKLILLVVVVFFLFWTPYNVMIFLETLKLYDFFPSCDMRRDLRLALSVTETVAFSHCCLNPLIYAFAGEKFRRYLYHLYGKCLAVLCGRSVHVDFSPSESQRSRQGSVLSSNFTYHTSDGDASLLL
As to the kind of experiment: FACS binding, HEK293T cynomolgus CX3CR1. Background: In flow cytometry, cells or beads pass a laser one at a time.

For experiment [2], the target named is T2, human CX3CR1 (human, UniProt P49238 1-355).
T2 sequence: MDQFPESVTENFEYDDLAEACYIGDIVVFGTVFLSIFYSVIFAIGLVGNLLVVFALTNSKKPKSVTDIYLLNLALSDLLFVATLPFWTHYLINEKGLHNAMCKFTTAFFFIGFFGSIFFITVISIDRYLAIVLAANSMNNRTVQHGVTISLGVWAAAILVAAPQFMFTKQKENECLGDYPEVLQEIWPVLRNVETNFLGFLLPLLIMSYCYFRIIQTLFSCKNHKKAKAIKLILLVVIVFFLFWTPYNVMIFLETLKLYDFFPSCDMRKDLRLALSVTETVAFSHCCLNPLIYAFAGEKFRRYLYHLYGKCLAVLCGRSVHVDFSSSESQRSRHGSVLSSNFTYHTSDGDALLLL
Kind of experiment: cell-based or functional assay.

Experiment [3] has as its target T1, cynomolgus CX3CR1. Kind of experiment: FACS binding, cynomolgus against human CX3CR1.
Experiment [4] has as its target T2, human CX3CR1. As to the kind of experiment: FACS binding, HEK293T human CX3CR1.
Experiment [5] addresses T2, human CX3CR1. Kind of experiment: A647-fractalkine competition FACS, CHO-huCX3CR1. The text has this: Periplasmic extracts were screened in a human CX3CR1/human Fractalkine FACS competition assay to assess the blocking capacity of the expressed VHHs. Human CX3CR1 was presented on CHO cells overexpressing CX3CR1. Both a setup using cells harvested from an actively growing culture and a setup using frozen cells was used. As a detection reagent labeled fractalkine was used (R&D Systems, Minneapolis, Minn., USA) labeled with alexa647 (A647-Fractalkine) at a degree of labeling of 1. To setup the assay, first a titration series of the labeled fractalkine was performed on the CHO-huCX3CR1 cells in order to determine the EC50 value for binding. Initially screening was performed at a higher concentration of fractalkine (3 nM) to increase the assay robustness. To increase the sensitivity of the screening to a maximum, the EC30 concentration (1 nM) was chosen for subsequent screening. In brief 50 μl of periplasmic extract was added to 6 nM labeled fractalkine (50 μ;) and 200 000 CHO-huCX3CR1 cells. After one hour incubation at 4 C, cells were washed three times before read out was performed on a FACS Array (Becton Dickinson). First a gate was set on the intact cells as determined from the scatter profile. Next, dead cells were gated out by their fluorescence profile from the PI stain (Sigma, St Louis, US). The fluorescence profile from the alexa647 label was determined for each sample and used for calculation of blocking capacity. As controls, conditions were taken along where there was no VHH present in the peri extract or a known irrelevant VHH and samples were included where excess cold fractalkine was included. For each sample the percentage block was determined using the control samples to determine the assay window.
The inhibition of ligand binding to human CX3CR1 was investigated for the different formats as described in Example 4. For this characterization the BA/F3-huCX3CR1 cell line was used showing stable expression of the human CX3CR1 receptor. The alexa647 labeled ligand fractalkine was used at its EC30 concentration and thereby obtained IC50 values are reflective of the Ki values.

In experiment [6] the target is T2, human CX3CR1. As to the kind of experiment: cell-based or functional assay. The source holds these as a separate data set.
Experiment [7] deals with T2, human CX3CR1. Kind of experiment: A647-fractalkine competition FACS, BA/F3-huCX3CR1.
The target of experiment [8] is T2, human CX3CR1. Kind of experiment: A647-fractalkine competition FACS, BA/F3-huCX3CR1. This is another data set of the same source.

B1: CX3CR1BII012 (VHH)
chain: EVQLVESGGGSVQAGGSLRLSCAASGSIFSSNAMAWYRQAPGKQRDLVAGINSVGITKYADSVKGRFTISRDNAKNTVYLQMNSLKPEDTAVYYCTSDPRRGWDTRYWGQGTLVTVSSGGGGSGGGGSGGGGSGGGGSGGGGSGGGGSGGGGSKVQLVESGGGLVQPGGSLRLSCATSGTIFSNNAMGWYRQAPGKKRDLVASISSSGSTNYADSVKGRFTVSRDNDKNTGYLQMNSLKPEDTGVYYCTLDARRGWNTAYWGQGAQVTVSS
notes: expressed in E. coli as described for the monovalent VHHs
Turning to B1, in experiment [1], the EC50 stood at 0.063 nM. In experiment [2], the “% block, fractalkine induced chemotaxis” value was 78% and the “IC50, fractalkine induced chemotaxis” value was found to be 4 nM. The “ratio (cynomolgus/human EC50)” value in experiment [3] came to 1.1. This molecule also returned an EC50 in experiment [4] of 0.056 nM. In experiment [5], the “% block” value amounted to 93% and the IC50 amounted to 0.8 nM.

B2: 306D-hFc (Fc fusion)
chain: DVQLVESGGGLVQPGGSLRLSCAASGSIFSSTAMAWYRQAPGKRRDLVAAISSVGVTKYADSVKGRFTISRDNSKNTVYLQMNSLRPEDTAVYYCTSDPRRGWDTRYWGQGTLVTVSSGGGGSGGGGSGGGGSCPPCPAPEAAGGPSVFLFPPKPKDTLMISRTPEVTCVVVDVSHEDPEVKFNWYVDGVEVHNAKTKPREEQYNSTYRVVSVLTVLHQDWLNGKEYKCKVSNKALPAPIEKTISKAKGQPREPQVYTLPPSREEMTKNQVSLTCLVKGFYPSDIAVEWESNGQPENNYKTTPPVLDSDGSFFLYSKLTVDKSRWQQGNVFSCSVMHEALHNHYTQKSLSLSPGK
notes: CX3CR1BII00306 fused to a human IgG1 Fc domain with two mutations in CH2; expressed in HEK293T or NS0 cells
As for B2, in experiment [6], the “IC50, Calcium influx” value came out at 1.3 nM; the “IC50, Chemotaxis” value worked out at 2.9 nM; the “IC50, Ligand internalization” value was found to be 0.48 nM. Further, in experiment [7], the IC50 worked out at 0.69 nM.

B3: CX3CR1BII026 (VHH)
chain: EVQLVESGGGLVQAGGSLRLSCVASGRTFSSYAMGWFRQAPGKERAFVAGISGSASRKYYADSVKGRFTVSRDNARNTVYLQMNSLKPEDTAVYYCAASNSYPKVQFDYYGQGTQVTVSSGGGGSGGGGSGGGGSGGGGSGGGGSGGGGSGGGGSEVQLVESGGGSVQAGESLRLSCAASGSIFSSNAMAWYRQAPGKRRDLVAAINSVGVTKYADSVKGRFTISRDNAKNTVYLQMNSLKPEDTAVYYCTSDPRRGWDTRYWGQGTQVTVSS
notes: as for B1
As to B3, in experiment [2], the “% block, fractalkine induced chemotaxis” value worked out at 98% and the “IC50, fractalkine induced chemotaxis” value stood at 0.3 nM. In addition, the IC50 in experiment [8] was 0.7 nM.

B4: CX3CR1BII027 (VHH)
chain: EVQLVESGGGLVQAGGSLRLSCVASGRTFSSYAMGWFRQAPGKERAFVAGISGSASRKYYADSVKGRFTVSRDNARNTVYLQMNSLKPEDTAVYYCAASNSYPKVQFDYYGQGTQVTVSSGGGGSGGGGSGGGGSGGGGSGGGGSGGGGSGGGGSEVQLVESGGGSVQAGESLRLSCAASGSIFSSNAMAWYRQAPGKQRDLVAGINSVGITKYADSVKGRFTISRDNAKNTAYLQMNSLKPEDTAVYYCTSDPRRGWDTRYWGQGTLVTVSS
notes: as for B1
As to B4, in experiment [2], the “% block, fractalkine induced chemotaxis” value was determined as 98% and the “IC50, fractalkine induced chemotaxis” value was 0.9 nM. Besides, the IC50 in experiment [8] worked out at 0.67 nM.

B5: CX3CR1BII009 (VHH)
chain: KVQLVESGGGLVQPGGSLRLSCATSGTIFSNNAMGWYRQAPGKKRDLVASISSSGSTNYADSVKGRFTVSRDNDKNTGYLQMNSLKPEDTGVYYCTLDARRGWNTAYWGQGAQVTVSSGGGGSGGGGSGGGGSGGGGSGGGGSGGGGSGGGGSEVQLVESGGGLVQAGGSLRLSCVASGRTFSSYAMGWFRQAPGKERAFVAGISGSASRKYYADSVKGRFTVSRDNARNTVYLQMNSLKPEDTAVYYCAASNSYPKVQFDYYGQGTQVTVSS
notes: as for B1
Consider B5, for which, in experiment [1], a half-maximal response (EC50) required 6.8 nM. Moreover, in experiment [2], the “% block, fractalkine induced chemotaxis” value turned out to be 79% and the “IC50, fractalkine induced chemotaxis” value turned out to be 20 nM. For the same molecule, the “ratio (cynomolgus/human EC50)” value in experiment [3] was 3.3. For the same molecule, in experiment [4], the EC50 is 2 nM. Moreover, in experiment [5], the “% block” value came to 91% and the IC50 stood at 0.7 nM.
